The results in this text go back to patent CN116761824A (SHANGHAI YAOMING HELIAN BIOTECHNOLOGY CO LTD, dated 2023).

This experiment addresses T1, 人Trop2 (human, UniProt P09758 27-323).
T1 construct: whole, on cells; also called 肿瘤相关钙信号转导器2; TACSTD2
T1 sequence (looked up): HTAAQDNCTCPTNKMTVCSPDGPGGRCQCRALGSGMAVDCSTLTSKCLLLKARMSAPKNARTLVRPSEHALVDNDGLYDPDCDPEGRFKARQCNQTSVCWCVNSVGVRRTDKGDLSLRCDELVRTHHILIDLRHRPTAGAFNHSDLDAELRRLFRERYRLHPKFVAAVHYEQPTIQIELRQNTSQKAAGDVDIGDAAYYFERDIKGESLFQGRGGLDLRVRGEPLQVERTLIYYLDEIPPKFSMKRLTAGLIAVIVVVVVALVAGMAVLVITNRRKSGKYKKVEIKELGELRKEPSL
Kind of experiment: FACS on tumour cells (MDA-MB-468, HCC827, BxPC-3), Alexa647 goat anti-human IgG Fc detection.

B1: 抗-Trop2抗体886-36 (antibody, V domains shown)
VH: QVQLQQSGSELKKPGASVKVSCKASGYTFTNYGMNWVKQAPGQGLKWMGWINTYTGEPTYTDDFKGRFAFSLDTSVSTAYLQISSLKADDTAVYFCARGGFGSSYWYFDVWGQGSLVTVSS
VL: DIQLTQSPSSLSASVGDRVSITCKASQDVSIAVAWYQQKPGKAPKLLIYSASYRYTGVPDRFSGSGSGTDFTLTISSLQPEDFAVYYCQQHYITPLTFGAGTKVEIKR
notes: also called WBP886-36
With B1, the binding result is reported as “binds”.

B2: 886-36-MMAE (antibody, V domains shown)
VH: B1 VH
VL: B1 VL
modifications: MC-vc-PAB-MMAE on cysteines freed by partial TCEP reduction of interchain disulfides; mostly in the Fab domain; mainly DAR4 (82.3%)
As for B2, the binding result is recorded as “binds”.
